According to patent US20180105569A1 (INDIANA UNIVERSITY RESEARCH AND TECHNOLOGY, published 2018):
Numbered stars: 1 amine (or outer) side, 2 acyl side, 3 side chain; on linkers, the order of the positions; unused ones are H or OH. Square brackets hold non-standard residues; d marks the D form. Side chains are listed from the residue outwards. Ends that are not written are not given here. * marks the point of attachment. β2His = Beta2-His (beta2-homo amino acid form of His; γGlu = O=C(O)[C@H](CCC(=O)[*:2])N[*:1]; Desaminohistidyl = O=C(CCc1c[nH]cn1)*; Desaminotyrosyl = O=C(CCc1ccc(O)cc1)*; Palmitoyl = CCCCCCCCCCCCCCCC(=O)*; dthioAla = not defined here; thioAla = not defined here; Orn = NCCC[C@H](N)C(=O)O; Aib = CC(C)(N)C(=O)O; Sar = CNCC(=O)O

T1: GIP receptor (UniProt P48546 22-466, limits assumed)
T1 sequence (looked up): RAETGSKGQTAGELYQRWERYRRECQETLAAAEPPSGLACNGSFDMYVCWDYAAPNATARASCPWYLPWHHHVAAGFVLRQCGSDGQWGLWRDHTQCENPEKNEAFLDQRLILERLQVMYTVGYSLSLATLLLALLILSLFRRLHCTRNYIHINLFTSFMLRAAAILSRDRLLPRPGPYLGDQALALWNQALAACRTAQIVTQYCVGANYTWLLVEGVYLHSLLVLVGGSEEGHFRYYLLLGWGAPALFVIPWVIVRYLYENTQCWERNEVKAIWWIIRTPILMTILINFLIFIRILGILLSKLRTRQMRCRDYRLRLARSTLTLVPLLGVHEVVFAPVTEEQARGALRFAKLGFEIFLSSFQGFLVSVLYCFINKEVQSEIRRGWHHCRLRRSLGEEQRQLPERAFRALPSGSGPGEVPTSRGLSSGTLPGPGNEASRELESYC

B1: peptide of SEQ ID NO: 26 (peptide)
peptide: XAQGTFTSDKSKYLDERAAQDFVQWLLEGGPSSGAPPPS
modifications: position 1 His; position 2 β-Ala; C-terminal amide; other non-coded or acylated residues as in the sequence listing

target: T1, GIP receptor; assay: cell-based or functional assay

Row | Binder | EC50 at GIP Receptor (cAMP luciferase reporter, HEK293) [pM]
1 | Ac-YAQGTFTSDK([γGlu-Palmitoyl])SKYLDERAAQDFVQWLLEGGPSSGAPPPS-NH2 [peptide of SEQ ID NO: 155] | 37

target: glucagon receptor (UniProt P47871 26-477, limits assumed); assay: cell-based or functional assay
Sequence (P47871 26-477 limits assumed): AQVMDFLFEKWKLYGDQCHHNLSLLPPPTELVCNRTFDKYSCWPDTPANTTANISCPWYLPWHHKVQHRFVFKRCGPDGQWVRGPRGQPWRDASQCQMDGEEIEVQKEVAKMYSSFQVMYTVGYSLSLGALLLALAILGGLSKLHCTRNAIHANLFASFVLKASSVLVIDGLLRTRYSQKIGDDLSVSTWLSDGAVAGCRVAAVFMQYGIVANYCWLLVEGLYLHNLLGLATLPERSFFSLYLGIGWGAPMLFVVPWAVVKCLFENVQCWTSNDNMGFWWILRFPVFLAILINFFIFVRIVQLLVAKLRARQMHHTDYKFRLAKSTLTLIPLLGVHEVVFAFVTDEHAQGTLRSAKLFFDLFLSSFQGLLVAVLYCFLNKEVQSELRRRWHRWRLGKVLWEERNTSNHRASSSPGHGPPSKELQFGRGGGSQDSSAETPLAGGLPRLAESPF

Row | Binder | EC50 at Glucagon Receptor (cAMP luciferase reporter, HEK293) [pM]
2 | [thioAla]GQGTFTSDK([γGlu-Palmitoyl])SKYLDERAAQDFVQWLLEGGPSSGAPPPS-NH2 (reading uncertain) [peptide of SEQ ID NO: 29] | 38
3 | Ac-[dY]AQGTFTSDK([γGlu-Palmitoyl])SKYLDERAAQDFVQWLLEGGPSSGAPPPS-NH2 [peptide of SEQ ID NO: 12] | 7
4 | [dH]PQGTFTSDK([γGlu-Palmitoyl])SKYLDERAAQDFVQWLLEGGPSSGAPPPS-NH2 [peptide of SEQ ID NO: 27] | 34
5 | H[Sar]QGTFTSDK([γGlu-Palmitoyl])SKYLDERAAQDFVQWLLEGGPSSGAPPPS-NH2 [peptide of SEQ ID NO: 28] | 22
6 | [Desaminotyrosyl]AQGTFTSDK([γGlu-Palmitoyl])SKYLDERAAQDFVQWLLEGGPSSGAPPPS-NH2 [peptide of SEQ ID NO: 11] | 16
7 | [Desaminohistidyl]GQGTFTSDK([γGlu-Palmitoyl])SKYLDERAAQDFVQWLLEGGPSSGAPPPS-NH2 [peptide of SEQ ID NO: 31] | 22
8 | [thioAla]PQGTFTSDK([γGlu-Palmitoyl])SKYLDERAAQDFVQWLLEGGPSSGAPPPS-NH2 (reading uncertain) [peptide of SEQ ID NO: 33] | 121
9 | Ac-[dH]AQGTFTSDK([γGlu-Palmitoyl])SKYLDERAAQDFVQWLLEGGPSSGAPPPS-NH2 [peptide of SEQ ID NO: 13] | 2
10 | Ac-[dthioAla]AQGTFTSDK([γGlu-Palmitoyl])SKYLDERAAQDFVQWLLEGGPSSGAPPPS-NH2 (reading uncertain) [peptide of SEQ ID NO: 17] | 8
11 | [β2His]AQGTFTSDK([γGlu-Palmitoyl])SKYLDERAAQDFVQWLLEGGPSSGAPPPS-NH2 [peptide of SEQ ID NO: 25] | 24
12 | Ac-QGQGTFTSDK([γGlu-Palmitoyl])SKYLDERAAQDFVQWLLEGGPSSGAPPPS-NH2 [peptide of SEQ ID NO: 34] | 163
13 | Ac-[dY]GQGTFTSDK([γGlu-Palmitoyl])SKYLDERAAQDFVQWLLEGGPSSGAPPPS-NH2 [peptide of SEQ ID NO: 14] | 5
14 | B1 | 95
15 | [dY]AQGTFTSDK([γGlu-Palmitoyl])SKYLDERAAQDFVQWLLEGGPSSGAPPPS-NH2 [peptide of SEQ ID NO: 15] | 50
16 | [Desaminohistidyl]AQGTFTSDK([γGlu-Palmitoyl])SKYLDERAAQDFVQWLLEGGPSSGAPPPS-NH2 [peptide of SEQ ID NO: 22] | 17
17 | H[Aib]QGTFTSDK([γGlu-Palmitoyl])SKYLDERAAQDFVQWLLEGGPSSGAPPPS-NH2 [peptide of SEQ ID NO: 37] | 9
18 | H[Aib]QGTFTSDK([γGlu-Palmitoyl])SKYLDERAAQDFVQWLLDGGPSSGAPPPS-NH2 [peptide of SEQ ID NO: 10] | 5
19 | Ac-[Orn]AQGTFTSDK([γGlu-Palmitoyl])SKYLDERAAQDFVQWLLEGGPSSGAPPPS-NH2 [peptide of SEQ ID NO: 30] | 635
20 | Ac-[thioAla]AQGTFTSDK([γGlu-Palmitoyl])SKYLDERAAQDFVQWLLEGGPSSGAPPPS-NH2 (reading uncertain) [peptide of SEQ ID NO: 21] | 6
21 | [dH]AQGTFTSDK([γGlu-Palmitoyl])SKYLDERAAQDFVQWLLEGGPSSGAPPPS-NH2 [peptide of SEQ ID NO: 16] | 10
22 | [dH]GQGTFTSDK([γGlu-Palmitoyl])SKYLDERAAQDFVQWLLEGGPSSGAPPPS-NH2 [peptide of SEQ ID NO: 23] | 15

target: T1, GIP receptor; assay: cell-based or functional assay; remark: another data set of the same source

Row | Binder | EC50 at GIP Receptor (cAMP luciferase reporter, HEK293) [pM]
23 | [thioAla]GQGTFTSDK([γGlu-Palmitoyl])SKYLDERAAQDFVQWLLEGGPSSGAPPPS-NH2 (reading uncertain) [peptide of SEQ ID NO: 29] | 95
24 | Ac-[dY]AQGTFTSDK([γGlu-Palmitoyl])SKYLDERAAQDFVQWLLEGGPSSGAPPPS-NH2 [peptide of SEQ ID NO: 12] | 2
25 | [dH]PQGTFTSDK([γGlu-Palmitoyl])SKYLDERAAQDFVQWLLEGGPSSGAPPPS-NH2 [peptide of SEQ ID NO: 27] | 80
26 | H[Sar]QGTFTSDK([γGlu-Palmitoyl])SKYLDERAAQDFVQWLLEGGPSSGAPPPS-NH2 [peptide of SEQ ID NO: 28] | 81
27 | [Desaminotyrosyl]AQGTFTSDK([γGlu-Palmitoyl])SKYLDERAAQDFVQWLLEGGPSSGAPPPS-NH2 [peptide of SEQ ID NO: 11] | 2
28 | [Desaminohistidyl]GQGTFTSDK([γGlu-Palmitoyl])SKYLDERAAQDFVQWLLEGGPSSGAPPPS-NH2 [peptide of SEQ ID NO: 31] | 226
29 | [thioAla]PQGTFTSDK([γGlu-Palmitoyl])SKYLDERAAQDFVQWLLEGGPSSGAPPPS-NH2 (reading uncertain) [peptide of SEQ ID NO: 33] | 430
30 | Ac-[dH]AQGTFTSDK([γGlu-Palmitoyl])SKYLDERAAQDFVQWLLEGGPSSGAPPPS-NH2 [peptide of SEQ ID NO: 13] | 4
31 | Ac-[dthioAla]AQGTFTSDK([γGlu-Palmitoyl])SKYLDERAAQDFVQWLLEGGPSSGAPPPS-NH2 (reading uncertain) [peptide of SEQ ID NO: 17] | 11
32 | [β2His]AQGTFTSDK([γGlu-Palmitoyl])SKYLDERAAQDFVQWLLEGGPSSGAPPPS-NH2 [peptide of SEQ ID NO: 25] | 64
33 | Ac-QGQGTFTSDK([γGlu-Palmitoyl])SKYLDERAAQDFVQWLLEGGPSSGAPPPS-NH2 [peptide of SEQ ID NO: 34] | 436
34 | Ac-[dY]GQGTFTSDK([γGlu-Palmitoyl])SKYLDERAAQDFVQWLLEGGPSSGAPPPS-NH2 [peptide of SEQ ID NO: 14] | 5
35 | B1 | 71
36 | [dY]AQGTFTSDK([γGlu-Palmitoyl])SKYLDERAAQDFVQWLLEGGPSSGAPPPS-NH2 [peptide of SEQ ID NO: 15] | 8
37 | [Desaminohistidyl]AQGTFTSDK([γGlu-Palmitoyl])SKYLDERAAQDFVQWLLEGGPSSGAPPPS-NH2 [peptide of SEQ ID NO: 22] | 41
38 | H[Aib]QGTFTSDK([γGlu-Palmitoyl])SKYLDERAAQDFVQWLLEGGPSSGAPPPS-NH2 [peptide of SEQ ID NO: 37] | 3
39 | H[Aib]QGTFTSDK([γGlu-Palmitoyl])SKYLDERAAQDFVQWLLDGGPSSGAPPPS-NH2 [peptide of SEQ ID NO: 10] | 3
40 | Ac-[Orn]AQGTFTSDK([γGlu-Palmitoyl])SKYLDERAAQDFVQWLLEGGPSSGAPPPS-NH2 [peptide of SEQ ID NO: 30] | 183
41 | Ac-[thioAla]AQGTFTSDK([γGlu-Palmitoyl])SKYLDERAAQDFVQWLLEGGPSSGAPPPS-NH2 (reading uncertain) [peptide of SEQ ID NO: 21] | 40
42 | [dH]AQGTFTSDK([γGlu-Palmitoyl])SKYLDERAAQDFVQWLLEGGPSSGAPPPS-NH2 [peptide of SEQ ID NO: 16] | 10
43 | [dH]GQGTFTSDK([γGlu-Palmitoyl])SKYLDERAAQDFVQWLLEGGPSSGAPPPS-NH2 [peptide of SEQ ID NO: 23] | 43

target: GLP-1 receptor (UniProt P43220 24-463, limits assumed); assay: cell-based or functional assay

Row | Binder | EC50 at GLP-1 Receptor (cAMP luciferase reporter, HEK293) [pM]
44 | [thioAla]GQGTFTSDK([γGlu-Palmitoyl])SKYLDERAAQDFVQWLLEGGPSSGAPPPS-NH2 (reading uncertain) [peptide of SEQ ID NO: 29] | 7
45 | Ac-[dY]AQGTFTSDK([γGlu-Palmitoyl])SKYLDERAAQDFVQWLLEGGPSSGAPPPS-NH2 [peptide of SEQ ID NO: 12] | 3
46 | [dH]PQGTFTSDK([γGlu-Palmitoyl])SKYLDERAAQDFVQWLLEGGPSSGAPPPS-NH2 [peptide of SEQ ID NO: 27] | 3
47 | H[Sar]QGTFTSDK([γGlu-Palmitoyl])SKYLDERAAQDFVQWLLEGGPSSGAPPPS-NH2 [peptide of SEQ ID NO: 28] | 2
48 | [Desaminotyrosyl]AQGTFTSDK([γGlu-Palmitoyl])SKYLDERAAQDFVQWLLEGGPSSGAPPPS-NH2 [peptide of SEQ ID NO: 11] | 2
49 | [Desaminohistidyl]GQGTFTSDK([γGlu-Palmitoyl])SKYLDERAAQDFVQWLLEGGPSSGAPPPS-NH2 [peptide of SEQ ID NO: 31] | 3
50 | [thioAla]PQGTFTSDK([γGlu-Palmitoyl])SKYLDERAAQDFVQWLLEGGPSSGAPPPS-NH2 (reading uncertain) [peptide of SEQ ID NO: 33] | 5
51 | Ac-[dH]AQGTFTSDK([γGlu-Palmitoyl])SKYLDERAAQDFVQWLLEGGPSSGAPPPS-NH2 [peptide of SEQ ID NO: 13] | 4
52 | Ac-[dthioAla]AQGTFTSDK([γGlu-Palmitoyl])SKYLDERAAQDFVQWLLEGGPSSGAPPPS-NH2 (reading uncertain) [peptide of SEQ ID NO: 17] | 5
53 | [β2His]AQGTFTSDK([γGlu-Palmitoyl])SKYLDERAAQDFVQWLLEGGPSSGAPPPS-NH2 [peptide of SEQ ID NO: 25] | 3
54 | Ac-QGQGTFTSDK([γGlu-Palmitoyl])SKYLDERAAQDFVQWLLEGGPSSGAPPPS-NH2 [peptide of SEQ ID NO: 34] | 611
55 | Ac-[dY]GQGTFTSDK([γGlu-Palmitoyl])SKYLDERAAQDFVQWLLEGGPSSGAPPPS-NH2 [peptide of SEQ ID NO: 14] | 22
56 | B1 | 2
57 | [dY]AQGTFTSDK([γGlu-Palmitoyl])SKYLDERAAQDFVQWLLEGGPSSGAPPPS-NH2 [peptide of SEQ ID NO: 15] | 4
58 | [Desaminohistidyl]AQGTFTSDK([γGlu-Palmitoyl])SKYLDERAAQDFVQWLLEGGPSSGAPPPS-NH2 [peptide of SEQ ID NO: 22] | 3
59 | H[Aib]QGTFTSDK([γGlu-Palmitoyl])SKYLDERAAQDFVQWLLEGGPSSGAPPPS-NH2 [peptide of SEQ ID NO: 37] | 6
60 | H[Aib]QGTFTSDK([γGlu-Palmitoyl])SKYLDERAAQDFVQWLLDGGPSSGAPPPS-NH2 [peptide of SEQ ID NO: 10] | 5
61 | Ac-[Orn]AQGTFTSDK([γGlu-Palmitoyl])SKYLDERAAQDFVQWLLEGGPSSGAPPPS-NH2 [peptide of SEQ ID NO: 30] | 2
62 | Ac-[thioAla]AQGTFTSDK([γGlu-Palmitoyl])SKYLDERAAQDFVQWLLEGGPSSGAPPPS-NH2 (reading uncertain) [peptide of SEQ ID NO: 21] | 26
63 | [dH]AQGTFTSDK([γGlu-Palmitoyl])SKYLDERAAQDFVQWLLEGGPSSGAPPPS-NH2 [peptide of SEQ ID NO: 16] | 2
64 | [dH]GQGTFTSDK([γGlu-Palmitoyl])SKYLDERAAQDFVQWLLEGGPSSGAPPPS-NH2 [peptide of SEQ ID NO: 23] | 3
